Numbered stars: 1 amine (or outer) side, 2 acyl side, 3 side chain; on linkers, the order of the positions; unused ones are H or OH. Bridge positions count the residues as written; N and C are the ends. Side chains are listed from the residue outwards. Ends that are not written are not given here. * marks the point of attachment. C20 diacid = O=C(O)CCCCCCCCCCCCCCCCCCC(=O)*; γGlu = O=C(O)[C@H](CCC(=O)[*:2])N[*:1]
T1: human calcitonin receptor (human, UniProt P30988 25-474)
T1 construct: whole, on cells; Assayed as cell membranes of BHK tk'ts 13 cells stably transfected with the human calcitonin receptor (Assay VII); also called hCTR; hCT
T1 sequence (looked up): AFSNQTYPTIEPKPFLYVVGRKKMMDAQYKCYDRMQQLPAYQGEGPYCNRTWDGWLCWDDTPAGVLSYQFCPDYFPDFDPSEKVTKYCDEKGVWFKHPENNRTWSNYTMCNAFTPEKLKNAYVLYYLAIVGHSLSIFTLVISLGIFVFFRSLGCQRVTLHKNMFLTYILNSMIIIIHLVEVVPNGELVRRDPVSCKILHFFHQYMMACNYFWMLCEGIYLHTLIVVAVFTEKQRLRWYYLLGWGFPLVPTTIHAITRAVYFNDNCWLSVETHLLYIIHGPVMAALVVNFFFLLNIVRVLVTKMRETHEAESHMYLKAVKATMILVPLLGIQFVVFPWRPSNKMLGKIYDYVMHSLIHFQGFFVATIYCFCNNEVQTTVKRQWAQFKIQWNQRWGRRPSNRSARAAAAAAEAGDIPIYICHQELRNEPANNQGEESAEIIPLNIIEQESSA


Key:
[1] = target: T1, human calcitonin receptor; test: SPA competition vs 125I-calcitonin, membranes of BHK cells with human calcitonin receptor (Assay VII)
How it was run: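 BHK hCTR membranes 35 ng/μL + SPA beads 0.05 mg/well; buffer 50 mM Hepes pH 7.4, 1 mM CaCl2, 5 mM MgCl₂, 0.1% OA, 0.02% Tween20. 120 min, 25° C., shaking. Scintillation count; IC50 by one-site binding competition.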

[2] = target: T1, human calcitonin receptor; test: IC50 at hCTR divided by IC50 at hAmylin-R (SPA competition assays V and VII)
How it was run: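 Competition binding by SPA with cell membranes (35 ng/μL) and SPA beads in 50 mM Hepes pH 7.4 with 1 mM CaCl2, 5 mM MgCl2, 0.1% OA and 0.02% Tween20. Incubated 120 min at 25 °C with shaking, then counted.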

Binder | IC50 [1] [nM] | Ratio hCT/hAmylin binding [2]
K([γGlu-C20 diacid])CNTATCATQRLAHFLRHSSPNFGAIPSSTNVGHNTY-NH2 (disulfide 2-7; N-terminus assumed; SMILES CC[C@H](C)[C@H](NC(=O)[C@H](C)NC(=O)CNC(=O)[C@H](Cc1ccccc1)NC(=O)[C@H](CC(N)=O)NC(=O)[C@@H]1CCCN1C(=O)[C@H](CO)NC(=O)[C@H](CO)NC(=O)[C@H](Cc1c[nH]cn1)NC(=O)[C@H](CCCNC(=N)N)NC(=O)[C@H](CC(C)C)NC(=O)[C@H](Cc1ccccc1)NC(=O)[C@H](Cc1c[nH]cn1)NC(=O)[C@H](C)NC(=O)[C@H](CC(C)C)NC(=O)[C@H](CCCNC(=N)N)NC(=O)[C@H](CCC(N)=O)NC(=O)[C@@H](NC(=O)[C@H](C)NC(=O)[C@@H]1CSSC[C@H](NC(=O)[C@@H](N)CCCCNC(=O)CC[C@H](NC(=O)CCCCCCCCCCCCCCCCCCC(=O)O)C(=O)O)C(=O)N[C@@H](CC(N)=O)C(=O)N[C@@H]([C@@H](C)O)C(=O)N[C@@H](C)C(=O)N[C@@H]([C@@H](C)O)C(=O)N1)[C@@H](C)O)C(=O)N1CCC[C@H]1C(=O)N[C@@H](CO)C(=O)N[C@@H](CO)C(=O)N[C@H](C(=O)N[C@@H](CC(N)=O)C(=O)N[C@H](C(=O)NCC(=O)N[C@@H](Cc1c[nH]cn1)C(=O)N[C@@H](CC(N)=O)C(=O)N[C@H](C(=O)N[C@@H](Cc1ccc(O)cc1)C(N)=O)[C@@H](C)O)C(C)C)[C@@H](C)O, also called compound 81) | 23.6 | 87.2
K([γGlu-C20 diacid])CNTATCATQRLAHFLRHSSPNFGAIPSSTPVGSNTY-NH2 (disulfide 2-7; N-terminus assumed; SMILES CC[C@H](C)[C@H](NC(=O)[C@H](C)NC(=O)CNC(=O)[C@H](Cc1ccccc1)NC(=O)[C@H](CC(N)=O)NC(=O)[C@@H]1CCCN1C(=O)[C@H](CO)NC(=O)[C@H](CO)NC(=O)[C@H](Cc1c[nH]cn1)NC(=O)[C@H](CCCNC(=N)N)NC(=O)[C@H](CC(C)C)NC(=O)[C@H](Cc1ccccc1)NC(=O)[C@H](Cc1c[nH]cn1)NC(=O)[C@H](C)NC(=O)[C@H](CC(C)C)NC(=O)[C@H](CCCNC(=N)N)NC(=O)[C@H](CCC(N)=O)NC(=O)[C@@H](NC(=O)[C@H](C)NC(=O)[C@@H]1CSSC[C@H](NC(=O)[C@@H](N)CCCCNC(=O)CC[C@H](NC(=O)CCCCCCCCCCCCCCCCCCC(=O)O)C(=O)O)C(=O)N[C@@H](CC(N)=O)C(=O)N[C@@H]([C@@H](C)O)C(=O)N[C@@H](C)C(=O)N[C@@H]([C@@H](C)O)C(=O)N1)[C@@H](C)O)C(=O)N1CCC[C@H]1C(=O)N[C@@H](CO)C(=O)N[C@@H](CO)C(=O)N[C@H](C(=O)N1CCC[C@H]1C(=O)N[C@H](C(=O)NCC(=O)N[C@@H](CO)C(=O)N[C@@H](CC(N)=O)C(=O)N[C@H](C(=O)N[C@@H](Cc1ccc(O)cc1)C(N)=O)[C@@H](C)O)C(C)C)[C@@H](C)O, also called compound 62) | 6.17 | 63
K([γGlu-C20 diacid])CNTATCATQRLAHFLRHSSPNFGAIPSSTNVGSHTY-NH2 (disulfide 2-7; N-terminus assumed; SMILES CC[C@H](C)[C@H](NC(=O)[C@H](C)NC(=O)CNC(=O)[C@H](Cc1ccccc1)NC(=O)[C@H](CC(N)=O)NC(=O)[C@@H]1CCCN1C(=O)[C@H](CO)NC(=O)[C@H](CO)NC(=O)[C@H](Cc1c[nH]cn1)NC(=O)[C@H](CCCNC(=N)N)NC(=O)[C@H](CC(C)C)NC(=O)[C@H](Cc1ccccc1)NC(=O)[C@H](Cc1c[nH]cn1)NC(=O)[C@H](C)NC(=O)[C@H](CC(C)C)NC(=O)[C@H](CCCNC(=N)N)NC(=O)[C@H](CCC(N)=O)NC(=O)[C@@H](NC(=O)[C@H](C)NC(=O)[C@@H]1CSSC[C@H](NC(=O)[C@@H](N)CCCCNC(=O)CC[C@H](NC(=O)CCCCCCCCCCCCCCCCCCC(=O)O)C(=O)O)C(=O)N[C@@H](CC(N)=O)C(=O)N[C@@H]([C@@H](C)O)C(=O)N[C@@H](C)C(=O)N[C@@H]([C@@H](C)O)C(=O)N1)[C@@H](C)O)C(=O)N1CCC[C@H]1C(=O)N[C@@H](CO)C(=O)N[C@@H](CO)C(=O)N[C@H](C(=O)N[C@@H](CC(N)=O)C(=O)N[C@H](C(=O)NCC(=O)N[C@@H](CO)C(=O)N[C@@H](Cc1c[nH]cn1)C(=O)N[C@H](C(=O)N[C@@H](Cc1ccc(O)cc1)C(N)=O)[C@@H](C)O)C(C)C)[C@@H](C)O, also called compound 66) | 18 | 45.5

Second part, the binder after the results:

IC50 [1] [nM] | Ratio hCT/hAmylin binding [2] | Binder
34.9 | 46.5 | K([γGlu-γGlu-C20 diacid])CNTATCATQRLAEFLRHSSPNFGAIPSSTNVGRNTY-NH2 (disulfide 2-7; N-terminus assumed; SMILES CC[C@H](C)[C@H](NC(=O)[C@H](C)NC(=O)CNC(=O)[C@H](Cc1ccccc1)NC(=O)[C@H](CC(N)=O)NC(=O)[C@@H]1CCCN1C(=O)[C@H](CO)NC(=O)[C@H](CO)NC(=O)[C@H](Cc1c[nH]cn1)NC(=O)[C@H](CCCNC(=N)N)NC(=O)[C@H](CC(C)C)NC(=O)[C@H](Cc1ccccc1)NC(=O)[C@H](CCC(=O)O)NC(=O)[C@H](C)NC(=O)[C@H](CC(C)C)NC(=O)[C@H](CCCNC(=N)N)NC(=O)[C@H](CCC(N)=O)NC(=O)[C@@H](NC(=O)[C@H](C)NC(=O)[C@@H]1CSSC[C@H](NC(=O)[C@@H](N)CCCCNC(=O)CC[C@H](NC(=O)CC[C@H](NC(=O)CCCCCCCCCCCCCCCCCCC(=O)O)C(=O)O)C(=O)O)C(=O)N[C@@H](CC(N)=O)C(=O)N[C@@H]([C@@H](C)O)C(=O)N[C@@H](C)C(=O)N[C@@H]([C@@H](C)O)C(=O)N1)[C@@H](C)O)C(=O)N1CCC[C@H]1C(=O)N[C@@H](CO)C(=O)N[C@@H](CO)C(=O)N[C@H](C(=O)N[C@@H](CC(N)=O)C(=O)N[C@H](C(=O)NCC(=O)N[C@@H](CCCNC(=N)N)C(=O)N[C@@H](CC(N)=O)C(=O)N[C@H](C(=O)N[C@@H](Cc1ccc(O)cc1)C(N)=O)[C@@H](C)O)C(C)C)[C@@H](C)O, also called compound 88)
133 | 159 | K([γGlu-γGlu-C20 diacid])CNTATCATQRLANFLRHSSPNFGAIPSSTNVGHNTY-NH2 (disulfide 2-7; N-terminus assumed; SMILES CC[C@H](C)[C@H](NC(=O)[C@H](C)NC(=O)CNC(=O)[C@H](Cc1ccccc1)NC(=O)[C@H](CC(N)=O)NC(=O)[C@@H]1CCCN1C(=O)[C@H](CO)NC(=O)[C@H](CO)NC(=O)[C@H](Cc1c[nH]cn1)NC(=O)[C@H](CCCNC(=N)N)NC(=O)[C@H](CC(C)C)NC(=O)[C@H](Cc1ccccc1)NC(=O)[C@H](CC(N)=O)NC(=O)[C@H](C)NC(=O)[C@H](CC(C)C)NC(=O)[C@H](CCCNC(=N)N)NC(=O)[C@H](CCC(N)=O)NC(=O)[C@@H](NC(=O)[C@H](C)NC(=O)[C@@H]1CSSC[C@H](NC(=O)[C@@H](N)CCCCNC(=O)CC[C@H](NC(=O)CC[C@H](NC(=O)CCCCCCCCCCCCCCCCCCC(=O)O)C(=O)O)C(=O)O)C(=O)N[C@@H](CC(N)=O)C(=O)N[C@@H]([C@@H](C)O)C(=O)N[C@@H](C)C(=O)N[C@@H]([C@@H](C)O)C(=O)N1)[C@@H](C)O)C(=O)N1CCC[C@H]1C(=O)N[C@@H](CO)C(=O)N[C@@H](CO)C(=O)N[C@H](C(=O)N[C@@H](CC(N)=O)C(=O)N[C@H](C(=O)NCC(=O)N[C@@H](Cc1c[nH]cn1)C(=O)N[C@@H](CC(N)=O)C(=O)N[C@H](C(=O)N[C@@H](Cc1ccc(O)cc1)C(N)=O)[C@@H](C)O)C(C)C)[C@@H](C)O, also called compound 86)

From US20140087995A1 (published 2014)
